# Reference: the nanobody polyreactivity screen of Harvey et al. (2022)
# Assay: yeast display, Sf9 membrane polyspecificity reagent, FACS + sequencing; frameworks hold sequencing errors
# Method in brief: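 Nanobodies came from a synthetic yeast display library in Saccharomyces cerevisiae BJ5465, induced with galactose for 36–48 hours and stained for 1 hour at 4 °C with 10% biotinylated, detergent-solubilized Sf9 membrane reagent. Cells were enriched on streptavidin microbeads and then FACS-sorted, with low and high (top ~1%) gates set on anti-HA fluorescence for expression and streptavidin fluorescence for reagent binding. Each polyreactivity label reflects the gate a clone came from. Genes were amplified by colony PCR, sequenced by MiSeq 2 × 250 and filtered by CDR length.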
sequence,measurement,value
QVQLVESGGGLVQAGGSLRLSCAASGRIFKRNTMGWYRQAPGKERELVAAITYSGITYYADSVKGRFTISRDNAKNTVYLQMNSLKPEDTAVYYCAKVLYPIGSPRFEYWGQGTQVTVSS,polyreactivity (PSR sort gate),low polyreactivity
QVQLVESGGGLVQAGGSLRLSCAASGFTLYYYAMGWYRQAPGKERELVAAISYSGGTTYYADSVKGRFTISRDNAKYTVSLQMNSLKPEDTAVYYCAAEVGGYWADEYLGYDYWGQGTQVTVSS,polyreactivity (PSR sort gate),low polyreactivity
QVQLVESGGGLVQAGGSLRLSCAASGSTFGHYAMGWYRQAPGKERELVAGITDTDNHELRRLCEGRFTISRDNAKNTVYLQMTSLKPEDTAVYYCNADDTYYPLGGITGYDYWGQGTQVTVSS,polyreactivity (PSR sort gate),low polyreactivity
QVQLVESGGGLVQAGGSLRLICAASGRIFNYNYMGLYRQAPGKERELLAAISWRGGSTYYADSVKGRFTISRDNAKNTVYLQMKSLKPEDTAVYYCNKRTRYSTGSRYDYWGQGTQVTVSS,polyreactivity (PSR sort gate),high polyreactivity
QVQLVESGGALVQAGGSLRLSCAASGRIFSSYAMGWYRQEPGKERELVAAISRSGARTYYADSVKGRFTISRDNAKYSVYLQMNSLIAEDSAVSYCAAVTVSCYDYWGQGTQVTVSS,polyreactivity (PSR sort gate),high polyreactivity
QVQLVESGGGLVQAGGSLRLSCAASGRTFYYNTMGWYRQAPGKERELVAALSSRGGTTSYADSVKGRFTISRDNAKNSVYLQMNSLKPEDTAVYYCNAETYRRGSYDYWGQGTQVTVSS,polyreactivity (PSR sort gate),high polyreactivity
QVQLVDSGGGLVQAGGILRLSCAASGLTFYDNAMGWYRQAPAKERELVAAISDSGGSTYYADSVKGRFTISRDNAKNTVFLQMNSLKPEDTAVYYCAAAGWQANWEYEYWGQGTQVTVSS,polyreactivity (PSR sort gate),high polyreactivity
QVQLVESGGGLVQAGGSLRLSCAASGSIFTVNAMGWYRPAPAKERELVATISDTGGSTYADSVKGRFTISRYNAKNTVYLQMNSLKPEDTAVYYCNADYYVRRYPPYDYWGQGTQVTVSS,polyreactivity (PSR sort gate),low polyreactivity
QVQLVESGGGLVQAGGSLRLSCAASGSIFKSNAMGWYRQAPGKERELVAGISWGGGSTYYADSVKGRFTISRDNAKNTVYLQMNSLKPEDTAVYYCAAYVYYRPSALAVTGDYYWGQGTQVTVSS,polyreactivity (PSR sort gate),low polyreactivity
QVQLVESGGGLVQAGGSLRLSCAASGRTFYSYAMGWYRQAPGKERELVAAITWRASTYYADSVKGRFTISRDNAKNTVYLQMNSLKPEDTAVYYCAVRDYRPRYYTFLYNSPYDYWGQGTQVTVSS,polyreactivity (PSR sort gate),high polyreactivity
QVQLVESCGGLVQAGGSLRLSCSASGSTFVINAMGWYRQAPGKERELVAAISSGDNTNYADSVKGRFTISRDNAKNTVYLQMNSLKPEETAVYYCAALPAYLDYGARRSMDYWGQGTQVTVSS,polyreactivity (PSR sort gate),low polyreactivity
QVQLVESGGGLVQAGGSLRLSCAASGFTFRYYAMGWYRQAPGKERELVAAITSGGGSTYYADSVKGRFTISRDNAKNTVYLQMNSLKPEDTAVYYCATKRARYSYDYWGQGTQVTVSS,polyreactivity (PSR sort gate),high polyreactivity
QVQLVESGGGLVQAGGSLRLSCPASGLIFLHNAMGWYRQAPGKERELVATISLSGGSTYADSVKGRFTISRDNAKNTVYLQLYSLKPEDTAVYYCAAGGQYYIIRYDYWGQGTQVTVSS,polyreactivity (PSR sort gate),low polyreactivity
QVQLVESGGGLVQAGGSLRLSCAASGRIFRRNTMGWSRPAPGTERELVAAITSRGGSTYYADSVKGRFTISRDNAKNTVYLQMNSLKPADTAVYYCNTRVVPEIYDYWGQGTQVTVSS,polyreactivity (PSR sort gate),high polyreactivity
QVQLVESGGGLFQAGGSLRLSCAASGSIFDVNAMGWYRQAPGKEREFVAAISDSGGSTYYADSVKGRFTMSRDNAKNTVSLPMNSLKPEDTAVYYCNADWSWYNYYDFDYWGQGTQVTVSS,polyreactivity (PSR sort gate),low polyreactivity
QVQLVESGGGLVQAGGSLRLSCAASGSIFNSYAMGWYRQAPGKERELVAAISIRGTRTYYADSVKGRFTISRDNAKNTVYLQMNSLKPEDTAVYYCAADASYTEGMDYWGQGTQVTVSS,polyreactivity (PSR sort gate),high polyreactivity
QVQLVESGGGLVQAGGSLRLSCAASGSIFGSNAMGWYRQAPGKERELVAANSKSGGSTYYADSVKGRFTISRDNAKITVYLQMNSLKPEDTAVYYCNARWWVVTFYGRYEGDYWGQGTQVTVSS,polyreactivity (PSR sort gate),low polyreactivity
